The values below come from patent publication US5668264.

In the data set the target is PDGF AB (Homo sapiens) (UniProt P04085+P01127). In words: filter. The following applies: 2'-F on all C and U; random starting pool.
Sequence of PDGF AB (Homo sapiens) (P01127 82-190, chain 2 of 2, other chains not shown): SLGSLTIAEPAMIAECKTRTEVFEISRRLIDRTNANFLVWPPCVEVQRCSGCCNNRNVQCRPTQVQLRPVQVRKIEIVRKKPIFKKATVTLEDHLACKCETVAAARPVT

On to “GGGAGACAAGAAUAACGCUCAANNNNNNNNNNNNNNNNNNNNNNNNNNNNNNNNNNNNNNNNNNNNNNNNNNUUCGACAGGAGGCUCACAACAGGC [random 2'-F pyrimidine RNA pool (50N)]”, for which the Kd was 35 nM. That is a double-digit nanomolar value.

By Kd is commonly meant the concentration at which binding is half-saturated. High values mean a looser complex, low ones a tighter complex.
